Experimental data reported in paper PMC9646525, “Cryo-EM structure of the SEA complex” (Nature, 2022).

How the values were obtained:
Sea3 = target: T1, Sea3 (S. cerevisiae (endogenous in yeast …, UniProt Q03897 1-1148)); experiment: cryo-EM structure; endogenous SEAC purified from yeast via Sea4-TAP (IgG Dynabeads, TEV elution in 20 mM HEPES-NaOH pH 7.4, 300 mM NaCl, 2 mM DTT), on graphene-oxide-coated grids; conditions: both partners purified
T1 construct: Sea3, S. cerevisiae, endogenous subunit of the SEAC; Sea3^SIP (Sea3^Nter) lies in the wing, Sea3^SAP (Sea3^Cter) in the core; Native protein of the purified complex; two copies in the SEAC; source: endogenous, yeast cells expressing Sea4-TAP; in lysate and co-purified with Sea4-TAP (IgG Dynabeads, TEV elution)
T1 sequence (looked up): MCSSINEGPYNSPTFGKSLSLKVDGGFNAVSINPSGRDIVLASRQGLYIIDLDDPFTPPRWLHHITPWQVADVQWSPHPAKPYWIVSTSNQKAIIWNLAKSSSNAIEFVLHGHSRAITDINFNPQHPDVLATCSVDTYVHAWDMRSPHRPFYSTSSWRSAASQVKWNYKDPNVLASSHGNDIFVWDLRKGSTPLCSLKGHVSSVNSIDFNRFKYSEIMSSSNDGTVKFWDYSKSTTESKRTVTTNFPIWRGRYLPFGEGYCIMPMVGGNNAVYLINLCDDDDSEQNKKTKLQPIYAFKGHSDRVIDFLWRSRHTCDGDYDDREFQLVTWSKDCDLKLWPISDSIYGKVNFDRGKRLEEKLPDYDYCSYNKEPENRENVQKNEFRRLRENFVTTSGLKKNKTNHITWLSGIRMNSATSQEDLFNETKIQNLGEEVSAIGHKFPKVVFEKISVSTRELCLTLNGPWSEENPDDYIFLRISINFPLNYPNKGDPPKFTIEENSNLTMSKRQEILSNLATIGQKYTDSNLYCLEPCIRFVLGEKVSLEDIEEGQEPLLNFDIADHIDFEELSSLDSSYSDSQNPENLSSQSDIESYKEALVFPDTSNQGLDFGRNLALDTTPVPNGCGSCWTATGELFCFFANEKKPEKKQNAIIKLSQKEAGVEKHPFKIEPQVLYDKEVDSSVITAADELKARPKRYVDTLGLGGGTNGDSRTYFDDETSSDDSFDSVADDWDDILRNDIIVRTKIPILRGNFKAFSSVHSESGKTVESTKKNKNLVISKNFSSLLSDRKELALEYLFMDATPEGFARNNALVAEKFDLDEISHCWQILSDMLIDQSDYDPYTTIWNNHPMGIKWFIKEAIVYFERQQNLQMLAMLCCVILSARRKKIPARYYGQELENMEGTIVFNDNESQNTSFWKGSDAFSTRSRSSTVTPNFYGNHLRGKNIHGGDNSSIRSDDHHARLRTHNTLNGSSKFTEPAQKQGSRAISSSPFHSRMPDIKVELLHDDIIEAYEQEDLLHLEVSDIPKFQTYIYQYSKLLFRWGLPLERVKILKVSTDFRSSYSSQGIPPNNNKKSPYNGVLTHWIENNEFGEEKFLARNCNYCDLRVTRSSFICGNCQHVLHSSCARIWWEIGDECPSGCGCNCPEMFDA

Sea4-TAP = target: T2, Sea4-TAP (S. cerevisiae (endogenous in yeast …, UniProt P38164 1-1038)); experiment: as above; conditions: both partners purified
T2 construct: Sea4, S. cerevisiae, endogenous subunit of the SEAC (SEACAT, core), TAP-tagged; Captured by the TAP tag on IgG beads; the complex was released with TEV protease before SDS-PAGE and cryo-EM; Written 'Sea4-TAP'; Four copies in the SEAC; source: endogenous, yeast cells expressing Sea4-TAP; in lysate, purified on IgG-coupled Dynabeads and eluted with TEV protease
T2 sequence (looked up): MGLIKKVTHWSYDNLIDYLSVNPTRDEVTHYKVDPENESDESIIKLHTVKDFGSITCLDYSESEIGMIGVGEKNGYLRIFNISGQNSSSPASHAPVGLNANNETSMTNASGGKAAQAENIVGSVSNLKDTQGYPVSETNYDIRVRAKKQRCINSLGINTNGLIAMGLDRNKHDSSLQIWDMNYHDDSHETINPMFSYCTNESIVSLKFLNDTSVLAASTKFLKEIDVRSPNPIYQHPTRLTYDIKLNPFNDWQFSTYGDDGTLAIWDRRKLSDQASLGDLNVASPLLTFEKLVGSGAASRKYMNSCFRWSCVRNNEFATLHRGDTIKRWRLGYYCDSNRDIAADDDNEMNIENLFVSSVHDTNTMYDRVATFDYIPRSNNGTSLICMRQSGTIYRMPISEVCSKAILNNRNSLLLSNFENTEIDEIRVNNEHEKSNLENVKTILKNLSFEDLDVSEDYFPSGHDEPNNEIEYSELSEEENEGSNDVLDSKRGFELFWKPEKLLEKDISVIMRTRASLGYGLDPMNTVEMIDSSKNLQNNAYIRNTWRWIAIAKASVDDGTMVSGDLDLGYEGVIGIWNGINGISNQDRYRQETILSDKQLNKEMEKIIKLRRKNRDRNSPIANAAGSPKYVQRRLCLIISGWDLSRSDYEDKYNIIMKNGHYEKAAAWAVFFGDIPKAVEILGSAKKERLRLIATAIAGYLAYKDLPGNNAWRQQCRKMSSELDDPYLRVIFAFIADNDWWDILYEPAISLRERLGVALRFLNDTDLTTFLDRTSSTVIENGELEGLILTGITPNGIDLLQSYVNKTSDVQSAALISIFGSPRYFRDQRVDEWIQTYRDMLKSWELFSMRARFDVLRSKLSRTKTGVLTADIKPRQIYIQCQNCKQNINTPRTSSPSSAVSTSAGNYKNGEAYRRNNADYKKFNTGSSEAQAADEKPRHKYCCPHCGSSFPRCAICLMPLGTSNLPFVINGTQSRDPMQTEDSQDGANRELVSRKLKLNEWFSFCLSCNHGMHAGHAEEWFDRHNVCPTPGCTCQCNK

B1: Seh1 (natural protein, UniProt P53011 1-349, looked up)
chain: MQPFDSGHDDLVHDVVYDFYGRHVATCSSDQHIKVFKLDKDTSNWELSDSWRAHDSSIVAIDWASPEYGRIIASASYDKTVKLWEEDPDQEECSGRRWNKLCTLNDSKGSLYSVKFAPAHLGLKLACLGNDGILRLYDALEPSDLRSWTLTSEMKVLSIPPANHLQSDFCLSWCPSRFSPEKLAVSALEQAIIYQRGKDGKLHVAAKLPGHKSLIRSISWAPSIGRWYQLIATGCKDGRIRIFKITEKLSPLASEESLTNSNMFDNSADVDMDAQGRSDSNTEEKAELQSNLQVELLSEHDDHNGEVWSVSWNLTGTILSSAGDDGKVRLWKATYSNEFKCMSVITAQQ
notes: Seh1, S. cerevisiae, endogenous subunit of the SEAC (SEACAT, core); Native protein of the purified complex; six copies in the SEAC; source: endogenous, yeast cells expressing Sea4-TAP; in lysate and co-purified with Sea4-TAP (IgG Dynabeads, TEV elution)
binding result (Sea3): binds | binding result (Sea4-TAP): binds
